This is an account of results in patent US20210253639A1 (REGENTS OF THE UNIVERSITY OF MICHIGAN, published 2021).

Ends that are not written are not given here. E3 = triethyleneglycol (PEG3) linker; Cy5.5 = cyanine 5.5 fluorophore

Experiment [1] deals with T1, epidermal receptor growth factor 2 (ErbB2) (human, UniProt P04626 23-1255).
T1 construct: whole, on cells; Receptor on human cancer cell lines or xenograft tumour cells; also called HER2; HER2/neu
As to the kind of experiment: flow cytometry on OE33 cells (carry EGFR and ErbB2), apparent dissociation constant. (In general: Flow cytometry measures light scatter and fluorescence of single cells or particles in a stream.)

Experiment [2] has as its target T2, epidermal growth factor receptor (EGFR) (human, UniProt P00533 25-1210).
T2 construct: whole, on cells; Endogenous receptor on human cancer cell lines or xenograft tumour cells; also called ErbB-1; HER1
The description is as above.

The target of experiment [3] is EGFR and ErbB2 together on the surface of cells that express both (OE33, SKBr3) (human) (UniProt P00533). Put plainly: flow cytometry on OE33 cells, apparent dissociation constant.
Experiment [4] has the same target. As to the kind of experiment: confocal microscopy on OE33 cells, against QRH*-Cy5.5 and KSP*-Cy5.5.
Experiment [5] has the same target. Put plainly: flow cytometry time course on OE33 cells, 1 µM peptide, first-order fit.
The target is the same in experiment [6]. As to the kind of experiment: flow cytometry on OE33 cells, against QRH*-Cy5.5 and KSP*-Cy5.5.
In experiment [7] the target is T1, epidermal receptor growth factor 2 …. As to the kind of experiment: confocal microscopy of FITC-labeled peptides on Flo1-HER2 cells. As to the method: A FITC label was attached to each peptide, and binding to Flo1-HER2 and QhTERT cells (control) was imaged using confocal microscopy. […] KSPNPRF (SEQ ID NO: 2) was selected based on the highest mean fluorescence intensity with binding to Flo1-HER2. From the model, this peptide was determined to bind to HER2 domain 3. The peptide was then labeled for deep tissue imaging with a Cy5.5 fluorophore via a GGGSK (SEQ ID NO: 3) linker on the C-terminus, hereafter KSP*-Cy5.5. Cy5.5 was chosen for high quantum yield and photostability. The linker prevents steric hindrance by spatially separating the fluorophore from the peptide. A scrambled sequence PPSNFKR (SEQ ID NO: 4) was developed for use as control by altering the conformationally rigid spacer PNP and moving both hydrophobic and hydrophilic amino acids at the C-terminus. This control peptide also was linked to Cy5.5 via GGGSK (SEQ ID NO: 3), hereafter PPS*-Cy5.5. […] The fluorescence emission peak occurs at 708 nm in the NIR spectrum.

B1: KSP*-Cy5.5 (peptide)
peptide: KSPNPRFGGGSK(Cy5.5)-NH2
notes: also called KSP*-GGGSK-Cy5.5; ErbB2 monomer peptide
For the molecule B1, the Kd in experiment [1] was 54 nM.

B2: QRH*-Cy5.5 (peptide)
peptide: QRHKPREGGGSK(Cy5.5)-NH2
notes: also called QRH*-GGGSK-Cy5.5; EGFR monomer peptide
Turning to B2, in experiment [2], the Kd turned out to be 98 nM.

B3: QRH*-KSP*-E3-Cy5.5 (peptide)
peptide 1: QRHKPRE-E3
peptide 2: KSPNPRF-E3
modifications: not fully specified (bridges); also: heterodimer: both C-termini joined via E3 to alpha and epsilon amines of a Lys, followed by Lys carrying Cy5.5
As for B3, in experiment [3], the Kd amounted to 23 nM. For the same molecule, in experiment [4], the fold greater fluorescence intensity compared with either monomer alone turned out to be 3 fold. Moreover, in experiment [5], the apparent association time constant Ka stood at 0.22 min⁻¹ and the association time (printed in brackets after Ka) turned out to be 4.5 min. For the same molecule, the fold improved binding affinity compared with either monomer alone in experiment [6] was determined as 2 fold.
Consider KSPNPRF (also: FITC label, attachment not given here) [KSPNPRF with a FITC label], for which the binding result in experiment [7] was “binds”.
